Drawing on patent publication US20250101076A1, this text covers IC50 for one substance.

For this experiment, the target named is extracellular domain of the growth hormone receptor (human) (UniProt P10912). Put plainly: competition ELISA, plate coated with GHR extracellular domain, inhibition of biotin-hGH binding.
Chain of UniProt P10912 (P10912 19-264): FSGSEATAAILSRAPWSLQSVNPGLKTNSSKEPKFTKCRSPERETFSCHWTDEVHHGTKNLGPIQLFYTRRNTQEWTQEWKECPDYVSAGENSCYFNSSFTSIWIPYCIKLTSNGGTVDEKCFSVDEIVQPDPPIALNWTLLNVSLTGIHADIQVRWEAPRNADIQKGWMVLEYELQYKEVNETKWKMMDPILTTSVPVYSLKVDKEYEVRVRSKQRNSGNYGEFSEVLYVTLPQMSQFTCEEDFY

For orientation: IC50 means the concentration at which inhibition is half-maximal. The substance pegvisomant (ligand) came in with an IC50 of 137 nM.
